Measurements: patent EP4729546A1 (Jiangsu BioJeTay Biotechnology Co., Ltd., dated 2026)
Residue numbers refer to the chain shown, from its start. Like-named read-outs stand apart in the source and are kept apart here. Blank lines part the entries; values can stand above or below the molecule they belong to.

Columns and labels:
huFXII-his (human) [1] = target: huFXII-his (human) (UniProt P00748); assay: cell-based or functional assay
[2] = target: FXIIa (purchased from Enzyme Research Lab) (UniProt P00748); assay: cell-based or functional assay
huFXII-his (human) [3] = target: huFXII-his (human) (UniProt P00748); assay: ELISA, huFXII-his coated at 1 µg/ml, HRP anti-human secondary, OD450
huFXII-his (human) [4] = target: huFXII-his (human) (UniProt P00748); assay: cell-based or functional assay; remark: listed apart in the source
[5] = target: T1, FXIIa (purchased from Enzyme Research Lab) (UniProt P00748 20-615, limits assumed); assay: cell-based or functional assay
T1 sequence (looked up): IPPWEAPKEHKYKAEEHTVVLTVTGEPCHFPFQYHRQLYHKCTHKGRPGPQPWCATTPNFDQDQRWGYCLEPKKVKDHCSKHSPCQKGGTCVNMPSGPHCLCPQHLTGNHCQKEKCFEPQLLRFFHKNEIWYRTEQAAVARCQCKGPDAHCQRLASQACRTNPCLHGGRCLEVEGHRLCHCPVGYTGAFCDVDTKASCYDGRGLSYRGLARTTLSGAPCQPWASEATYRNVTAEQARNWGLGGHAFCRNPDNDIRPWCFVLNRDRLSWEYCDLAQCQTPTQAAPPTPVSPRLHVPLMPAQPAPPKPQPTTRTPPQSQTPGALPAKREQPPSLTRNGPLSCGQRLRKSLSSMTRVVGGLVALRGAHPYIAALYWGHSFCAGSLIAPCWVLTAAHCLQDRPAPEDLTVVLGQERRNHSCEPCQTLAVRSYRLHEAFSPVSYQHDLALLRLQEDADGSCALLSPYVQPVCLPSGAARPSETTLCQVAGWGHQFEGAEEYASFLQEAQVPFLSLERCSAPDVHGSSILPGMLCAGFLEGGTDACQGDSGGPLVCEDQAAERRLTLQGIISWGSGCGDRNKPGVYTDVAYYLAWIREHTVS

huFXII-his = target: T2, huFXII-his (human, UniProt P00748 20-615); assay: cell-based or functional assay
T2 sequence (looked up): T1 sequence (looked up)

B2: FX-Y17 (antibody, V domains shown)
VH: EVQLLESGGGLVQPGGSLRLSCAGSGFSFGSQTMSWVRQAPGKGLEWVSSISVISGRTYYADSVKGRFTISRDNSKNTLYLQMNSLRAEDTAVYYCTKSHAFDVWGQGTMVTVSS
VL: EIVLTQSPATLSVSPGERATLSCRASQSVYSNLAWYQQKPGQAPRLLIYGASTRATGIPARFSGSGSGTEFTLTISSLQSEDFAVYYCQQYNKWPLSFGGGTKVEIK
IC50 of inhibition of cleavage of chemical substrate S2302 by FXIIa (OD405) (huFXII-his (human) [1]): 0.0251 µg/mL
IC50 of inhibition of cleavage of chemical substrate S2302 by FXIIa (OD405) (huFXII-his (human) [4]): 0.0213 µg/mL

B4: FX-Y17-Y26 (antibody, V domains shown)
VH: B2 VH
VL: B2 VL with N32A, N92H
IC50 of inhibition of cleavage of chemical substrate S2302 by FXIIa (OD405) (huFXII-his): 0.0163 µg/mL

B5: FX-Y17-Y4 (antibody, V domains shown)
VH: B2 VH with I51S, S52H
VL: B2 VL with S31Y, N92H
IC50 of inhibition of the cleavage of PK proenzyme (prekallikrein) by FXIIa, read with pKa substrate CS-3102 (OD405) [5]: 0.0306 µM
EC50 (huFXII-his (human) [3]): 0.205 µg/mL
IC50 of inhibition of cleavage of chemical substrate S2302 by FXIIa (OD405) (huFXII-his (human) [4]): 0.0116 µg/mL

B6: FX-Y17-Y34 (antibody, V domains shown)
VH: B2 VH with G56R, K98R
VL: B2 VL with Y30W, N92H
IC50 of inhibition of the cleavage of PK proenzyme (prekallikrein) by FXIIa, read with pKa substrate CS-3102 (OD405) [5]: 0.0271 µM
IC50 of inhibition of cleavage of chemical substrate S2302 by FXIIa (OD405) (huFXII-his): 0.0282 µg/mL

B7: FX-Y17-Y24 (antibody, V domains shown)
VH: B2 VH with V53Y, S99G
VL: B2 VL with N32A, N92H
IC50 of inhibition of cleavage of chemical substrate S2302 by FXIIa (OD405) (huFXII-his): 0.0166 µg/mL

Continued, values first:

IC50 of inhibition of cleavage of chemical substrate S2302 by FXIIa (OD405) (huFXII-his (human) [1]): 0.0232 µg/mL
IC50 of inhibition of the cleavage of PK proenzyme (prekallikrein) by FXIIa, read with pKa substrate CS-3102 (OD405) [2]: 0.11 µM
EC50 (huFXII-his (human) [3]): 0.421 µg/mL
IC50 of inhibition of cleavage of chemical substrate S2302 by FXIIa (OD405) (huFXII-his (human) [4]): 0.0258 µg/mL
Molecule: CSL312 (antibody)

IC50 of inhibition of cleavage of chemical substrate S2302 by FXIIa (OD405) (huFXII-his (human) [1]): 0.0398 µg/mL
B1: FX-Y39 (antibody, V domains shown)
VH: QVQLQQSGGGLVQTGGSLRLACAGTGFTFSDYSMNWVRQAPGKGLEWVSYISNSRSRSSKYYADSVKGRFTISRDNAKNSLYLQMNSLRAEDTAVYYCARIGYCKNGVCGGAYDYWGQGTLVTVSS
VL: EIVLTQSPSAMSASVGDRVTITCRASQAIRNNLAWFQQKPGKVPKRLMNTASSLESGVPSRFSGSGSGTEFTLTITSLQPEDFASYYCLQYHDSPWTFGQGTKLEIK

IC50 of inhibition of the cleavage of PK proenzyme (prekallikrein) by FXIIa, read with pKa substrate CS-3102 (OD405) [5]: 0.0235 µM
EC50 (huFXII-his (human) [3]): 0.358 µg/mL
IC50 of inhibition of cleavage of chemical substrate S2302 by FXIIa (OD405) (huFXII-his (human) [4]): 0.0221 µg/mL
B3: FX-Y17-Y45 (antibody, V domains shown)
VH: B2 VH with V53H, T97A
VL: B2 VL with N32A, Y91N, K93R
